Results as given in patent US20070298494.

Assay: BS3 chemical cross-linking in solution, SDS-PAGE, silver stain; association of the peptide with itself

Protein: KKKKPARVGLGITTVLTMTTQSSGSRA [N-K4-M2GlyR]
- number of aggregates: SEQ ID No. 3 comprised 12 or more aggregates
